This is an account of results in patent US20260232830A1 (JIANGSU HENGRUI PHARMACEUTICALS, published 2026).

For assay [1], the target named is T1, human MUC1-C on stably transfected cells (human, UniProt P15941 961-1255, limits assumed).
T1 construct: domain: MUC1-C; the cell line of each value is named under assay; also called HCC827-human-MUC1-C cells; CHOK1-human-MUC1-C cells
As to the kind of experiment: FACS, HCC827-human-MUC1-C, Test 2.

For assay [2], the target named is T1, human MUC1-C on stably transfected cells. Put plainly: FACS, CHOK1-human-MUC1-C. On the technique in general: A flow cytometer gives signals particle by particle.
Assay [3] has the same target. Put plainly: FACS, CHOK1-human-MUC1-C. This is another data set of the same source.
Assay [4] shares this target. Put plainly: FACS, HCC827-human-MUC1-C.
The target is the same in assay [5]. As to the kind of experiment: FACS, HCC827-human-MUC1-C, Test 1.
Assay [6] concerns the target T2, human MUC1 as expressed on tumour cell lines (T47D, HCC827, HPAC) (human, UniProt P15941 24-1255).
T2 construct: whole, on cells; the cell line is named under assay; also called T47D cells; HCC827 cells
As to the kind of experiment: FACS, HPAC.

The target of assay [7] is T2, human MUC1 as expressed on tumour cell …. Put plainly: FACS, T47D.
Assay [8] has the same target. As to the kind of experiment: FACS, HCC827.
Assay [9] concerns the target T1, human MUC1-C on stably transfected cells. Put plainly: FACS, HCC827-human-MUC1-C, Test 2. This is another data set of the same source.

B1: M6-H2L2 (antibody, human IgG1, kappa, V domains shown)
VH: EVQLVQSGAEVKKPGASVKVSCKASGYRFIPYWIEWVRQAPGQGLEWMGEILPGTGRTNYNEKFKGRVTFTADTSTNTVYMELSSLRSEDTAVYYCARYGDDTSGGYYAVDYWGQGTTVTVSS
VL: EIVLTQSPATLSLSPGERATLSCRASESVNILGTNLIHWYQQKPGQAPKLLIYHASNLETGIPARFSGSGSRTDFTLTISSLEPEDFAVYYCLQSRKIPWTFGGGTKVEIKR
notes: humanized, human IgG1
For B1, the Emax in assay [1] was 92700.

B2: M6-H7L3 (antibody, human IgG1, kappa, V domains shown)
VH: EVQLVQSGAEVKKPGASVKVSCKASGYRFIPYWIEWVRERPGHGLEWMGEILPGTGRTNYNEKFKGRVTFTADTSTNTVYMELSSLTNEDTAVYYCARYGEDTSGGYYAVDYWGQGTTVTVSS
VL: DIVMTQSPATLSLSPGERATLSCRASESVNILGTNLIHWYQQKPGQAPKLLIYHASNLETGIPARFSGSGSRTDFTLTISSLEPEDVAVYYCLQSRKIPWTFGGGTKVEIKR
notes: humanized, human IgG1
Take B2: in [1], the Emax was found to be 48900.

B3: M6-H5L3 (antibody, human IgG1, kappa, V domains shown)
VH: EVQLVQSGAEVKKPGASVKVSCKASGYRFIPYWIEWVRERPGHGLEWMGEILPGTGRTNYNEKFKGRVTFTADTSTNTVYMELSSLTSEDTAVYYCARYGEDTSGGYYAVDYWGQGTTVTVSS
VL: DIVMTQSPATLSLSPGERATLSCRASESVNILGTNLIHWYQQKPGQAPKLLIYHASNLETGIPARFSGSGSRTDFTLTISSLEPEDVAVYYCLQSRKIPWTFGGGTKVEIKR
notes: humanized, human IgG1
In the case of B3, the Emax in assay [1] is 73000.

B4: M6-H7L2 (antibody, human IgG1, kappa, V domains shown)
VH: EVQLVQSGAEVKKPGASVKVSCKASGYRFIPYWIEWVRERPGHGLEWMGEILPGTGRTNYNEKFKGRVTFTADTSTNTVYMELSSLTNEDTAVYYCARYGEDTSGGYYAVDYWGQGTTVTVSS
VL: EIVLTQSPATLSLSPGERATLSCRASESVNILGTNLIHWYQQKPGQAPKLLIYHASNLETGIPARFSGSGSRTDFTLTISSLEPEDFAVYYCLQSRKIPWTFGGGTKVEIKR
notes: humanized, human IgG1
In turn, B4 had an Emax in assay [1] of 78400.

B5: F4-18-H2L3 (antibody, human IgG1, kappa, V domains shown)
VH: EVQLVQSGAEVKKPGASVKVSCKASGYTFTSYGINWVRQRPGQGLEWIGYIYLGSDYTEYNEKFKGRVTLTSDTSASTAYMELSSLRSEDTAVYYCARSAGSLFAYWGQGTLVTVSS
VL: DIQLTQSPSSLSASVGDRVTITCRASQDIGITLNWLQQKPGKAIKRLIYATSSLDSGVPSRFSGSRSGSDYTLTISSLQPEDFATYYCLQYASSPYTFGGGTKVEIKR
notes: humanized, human IgG1
In the case of B5, in assay [2], the Emax amounted to 80400.

B6: F4-18-H3L4 (antibody, human IgG1, kappa, V domains shown)
VH: EVQLVQSGAEVVKPGASVKMSCKTSGYTFTSYGINWVRQRPGQGLEWIGYIYLGSDYTEYNEKFKGRVTLTSDTSASTAYMELSSLRSEDTAVYYCARSAGSLFAYWGQGTLVTVSS
VL: DIQLTQSPSSLSASVGDRVTITCRASQDIGITLNWLQQEPGGAIKRLIYATSSLDSGVPKRFSGSRSGSDYTLTISSLQPEDFATYYCLQYASSPYTFGGGTKVEIKR
notes: humanized, human IgG1
Take B6: in [2], the Emax worked out at 73400.

B7: F4-1-H1L2 (antibody, human IgG1, kappa, V domains shown)
VH: EVQLVQSGAEVKKPGASVKVSCKASGYTFTDNYINWVRQAPGQRLEYMGWIYPGSGNNKFNEKFKGRVTITVDTSASTAYMELSSLRSEDTAVYYCARDYPFPSYHYGMDYWGQGTTVTVSS
VL: DIQLTQSPSSLSASVGDRVTITCSASSSVSYIHWFQQKPGKAPKLWIYSTSNLASGVPSRFSGSGSGTDFTLTVSSLQPEDFATYYCQQRSSYPPTFGGGTKVEIKR
notes: humanized, human IgG1
Consider B7, for which the Emax in assay [3] was found to be 102000.

B8: F4-1-H2L3 (antibody, human IgG1, kappa, V domains shown)
VH: EVQLVQSGAEVKKPGASVKVSCKASGYTFTDNYINWVRQAPGQRLEYIGWIYPGSGNNKFNEKFKGRVTLTVDTSARTAYMELSSLRSEDTAVYYCARDYPFPSYHYGMDYWGQGTTVTVSS
VL: DIQLTQSPSSLSASVGDRVTITCSASSSVSYIHWFQQKPGTSPKLWIYSTSNLASGVPSRFSGSGSGTDFTLTVSSLQPEDFATYYCQQRSSYPPTFGGGTKVEIKR
notes: humanized, human IgG1
In [3], B8 gave an Emax of 122000.

B9: ChiM4 (antibody, human IgG1, kappa, V domains shown)
VH: QVQLQQSGAELARPGASVKLSCKASGYSFTTYGVPWVKQRTGQGLEWIGDIYPRSGNTYYNEKFKGKATLTADKSSDTVFMELRSLSSEDSAVYFCAREDYDNYPYALDYWGQGTSVTVSS
VL: EIVLTQSPAIIAASPGEKVTITCSASSSVFNMNWYQQKPGSSPKIWIYDISKLASGVPGRFSGSGSGTSFSLTINSMEAEDVGTYYCQQRSFYPPTFGGGTKVEIKR
notes: murine variable regions on human IgG1 constant regions; also called chimeric antibody of M4
B9 gave an Emax in assay [4] of 13200.

B10: M4-H1L2 (antibody, human IgG1, kappa)
heavy: not shown
light: DIVMTQSPSSLSASVGDRVTITCSASSSVFNMNWYQQKPGKSPKLWIYDISKLASGVPSRFSGSGSGTDFTLTISSLQPEDFATYYCQQRSFYPPTFGGGTKVEIKRTVAAPSVFIFPPSDEQLKSGTASVVCLLNNFYPREAKVQWKVDNALQSGNSQESVTEQDSKDSTYSLSSTLTLSKADYEKHKVYACEVTHQGLSSPVTKSFNRGEC
notes: humanized, human IgG1
B10 returned an Emax in [5] of 74400.

B11: M4-H1L1 (antibody, human IgG1, kappa)
heavy: not shown
light: DIQMTQSPSSLSASVGDRVTITCSASSSVFNMNWYQQKPGKSPKLWIYDISKLASGVPSRFSGSGSGTDFTLTISSLQPEDFATYYCQQRSFYPPTFGGGTKVEIKRTVAAPSVFIFPPSDEQLKSGTASVVCLLNNFYPREAKVQWKVDNALQSGNSQESVTEQDSKDSTYSLSSTLTLSKADYEKHKVYACEVTHQGLSSPVTKSFNRGEC
notes: humanized, human IgG1
For orientation: EC50 means the concentration at which the effect is half-maximal. A higher EC50 goes with weaker potency. For B11, the Emax in [6] amounted to 22400; in assay [7], 5250; in [8], 3630; in [9] it was 42300. Also, in assay [9], it took 5 nM to reach a half-maximal effect (EC50).

B12: M4H1L1-9-A (antibody, human IgG1, kappa)
heavy: not shown
light: DIQMTQSPSSLSASVGDRVTITCSASSSVFNMNWYQQKPGKSPKLWIYDISKLASGVPSRFSGSGSGTDFTLTISSLQPEDFATYYCQQRSFYPPTFGGGTKVEIKRTVAAPSVFIFPPSDEQLKSGTASVVCLLNNFYPREAKVQWKVDNALQSGNSQESVTEQDSKDSTYSLSSTLTLSKADYEKHKVYACEVTHQGLSSPVTKSFNRGEC
modifications: compound 9-A coupled to reduced cysteines of the antibody (chains and sites not stated), average n=6.6
notes: also called MUC1 monoclonal antibody ADC
B12: the Emax was 29200 in assay [6] and 3690 in assay [8].

B13: ChiF4-18 (antibody, human IgG1, kappa, V domains shown)
VH: EVQLQQSGAELVRPGSSVKMSCKTSGYTFTSYGINWVKQRPGQGLEWIGYIYLGSDYTEYNEKFKGKATLTSDTTSSTAYMQLSSLTSEDSAIYFCARSAGSLFAYWGQGTLVTVSA
VL: DIQLTQSPSSLSASLGERVSLTCRASQDIGITLNWLQQEPDGTIKRLIYATSSLDSGVPKRFSGSRSGSDYSLTISSLESEDFVDYYCLQYASSPYTFGGGTKLEIKR
notes: murine variable regions on human IgG1 constant regions; also called chimeric antibody of F4-18
As to B13, the Emax in assay [4] amounted to 20900.

B14: ChiF4-1 (antibody, human IgG1, kappa, V domains shown)
VH: QIQLQQSGPELVKPGASVKISCKASGYTFTDNYINWVKQRPGQGLEYIGWIYPGSGNNKFNEKFKGKATLTVDTSSRTAFMQLSSLTFEDSAVYFCARDYPFPSYHYGMDYWGQGTSVTVSS
VL: QILLTQSPAIMSASPGERVTITCSASSSVSYIHWFQQKPGTSPKLWIYSTSNLASGVPPRFSGSGSGTSFSLTVSRMEAEDAATYYCQQRSSYPPTFGGGTKLEIKR
notes: murine variable regions on human IgG1 constant regions; also called chimeric antibody of F4-1
In [4], B14 yielded an Emax of 21500.
